From patent publication US20250025561A1, “LIQUID COMPOSITIONS COMPRISING A PHOSPHORYLCHOLINE-TUFTSIN CONJUGATE” (Tarsier Pharma Ltd., priority 2021, published 2025) come the findings set out here.

*1 amine or outer side, *2 acyl side, *3 side chain or, on linkers, in order; H or OH if unused. Where a SMILES comes first, the peptide text is derived from it. [ ]: non-standard residue; d: D form. X1 = C[N+](C)(C)CCOP(=O)([O-])Oc1ccc(/N=N/c2cc(C[C@H](N[*:1])C(=O)[*:2])ccc2O)cc1; X2 = C[N+](C)(C)CCOP(=O)(O)Oc1ccc(/N=N\c2cc(CC(N[*:1])C(=O)[*:2])ccc2O)cc1; NMeT = CN[CH](C(=O)O)[CH](C)O Where only a bound is given, the exact number is not on record here.

A short description of data set [1]: Biological activity (test not specified).
Data set [2] can be described thus: Chemical stability of the synthesized conjugates. The data set is classed as physicochemical. As for the experimental part: In brief, 50 mg of TRS was dissolved in 2.5 mL of water and 50 equivalents of acetaldehyde were added (at room temperature). Then, the pH was adjusted to 6.8. The solution was shaken over the weekend and analyzed by an analytical HPLC. […] The reaction mixture was purified by a preparative HPLC, to isolate the phosphorylcholine tuftsin conjugate of Formula 3A.
The phosphorylcholine tuftsin conjugate of Formula 3A was dissolved in 0.1% formic acid in water and the pH was adjusted to 2.7. After 30 min, the solution was lyophilized. The crude reaction mixture was purified by preparative HPLC to obtain the phosphorylcholine tuftsin conjugate of Formula 2A.

The test system of data set [3] is yeasts (S. cerevisiae). The data set can be described thus: Yeast fermentation activity (gas formation) in aqueous suspension with sucrose. The data set is classed as cell-based. To be noted: FIG. 2. The procedure: Yeast fermentation activity was correlated to the formation of bubbles within the aqueous suspension.
In brief, varying amount of 1% w/w solution of TRS was added to an aqueous suspension containing yeasts (S. cerevisiae) and a sufficient amount of sucrose, to obtain aqueous compositions containing 4 ppm, 20 ppm, 40 ppm, and 80 ppm of TRS. The gas formation (fermentation activity) of the aqueous suspension with TRS (hereinafter, “the sample”) was quantified by evaluating the volume of the released gas and compared to a similar aqueous yeast suspension devoid of TRS (hereinafter, “the control”).
Further, the phosphorylcholine tuftsin conjugate (PC) of Formula 2A synthesized as disclosed herein, has been tested to evaluate its antifungal activity. The inventors performed a similar experiment, as disclosed above, using varying concentrations of the phosphorylcholine tuftsin conjugate of Formula 2 (i.e. 6.7 ppm, 20 ppm, 40 ppm, and 80 ppm).

The nature of data set [4]: Solubility of drug substance in water. The data set is classed as physicochemical. The procedure: Drug Substance [TRS]: is a trifluoroacetate [TFA] salt of phosphorylcholine-tuftsin conjugate represented by Formula 1 (as shown herein). Molecular formula: C43H68N13O13P, Appearance: Yellow to orange solid. Solubility: >40 mg/ml in water.

`CC1NC([C@@H](C)O)C(=O)N1[C@@H](CCCCN)C(=O)N1CCCC1C(=O)N[C@@H](CCCNC(=N)N)CNCC(=O)N[C@@H](Cc1ccc(O)c(/N=N\c2ccc(OP(=O)(O)OCC[N+](C)(C)C)cc2)c1)C(=O)O` (stereo partly shown) [Formula 2A]: in data set [1], the biological activity entry was “solid biological activity”. Also, the chemical stability result in data set [2] was “sufficient chemical stability”. As to `CC(O)C1NC(C)N(C(CCCCN)C(=O)N2CCCC2C(=O)NC(CCCNC(=N)N)C(=O)NCC(=O)NC(Cc2ccc(O)c(N=Nc3ccc(OP(=O)(O)OCC[N+](C)(C)C)cc3)c2)C(=O)O)C1=O` (stereo not shown) [Formula 2], the “yeast activity vs control” value in data set [3] (80 ppm) is recorded as “almost completely eliminated”; in data set [3] (lowest concentration of about 7 ppm (6.7 ppm)) it was “significant reduction of the yeast activity”. Take `C/C=N/CCCC[C@@H](C(=O)N1CCCC1C(=O)N[C@@H](CCCNC(=N)N)CNCC(=O)N[C@@H](Cc1ccc(O)c(/N=N/c2ccc(OP(=O)(O)OCC[N+](C)(C)C)cc2)c1)C(=O)O)N1C(=O)C([C@@H](C)O)NC1C` (stereo partly shown) [Formula 3A]: the “hydrolysis (converted into PC of Formula 2A)” value in data set [2] (at acidic pH) is “undergoes hydrolysis”.

Turning to `CNC(C(=O)NC(CCCCN)C(=O)N1CCCC1C(=O)NC(CCCNC(=N)N)C(=O)NCC(=O)NC(Cc1ccc(O)c(/N=N\c2ccc(OP(=O)(O)OCC[N+](C)(C)C)cc2)c1)C(=O)O)C(C)O` (stereo not shown) [Formula 5] (H-[NMeT]KPRG[X2]-OH; configuration not given here), the “chemical stability as compared to PC of Formula 2” value in data set [2] was “reduced chemical stability”. Compound `C[C@@H](O)[C@H](N)C(=O)N[C@@H](CCCCN)C(=O)N1CCC[C@H]1C(=O)N[C@@H](CCCNC(=N)N)C(=O)NCC(=O)N[C@@H](Cc1ccc(O)c(/N=N/c2ccc(OP(=O)([O-])OCC[N+](C)(C)C)cc2)c1)C(=O)O` [TRS] (H-TKPRG[X1]-OH) registered a solubility in data set [4] of over 40 mg/mL.

A word on the solubility: it is how much of the substance goes into solution per volume. High values mean much dissolved substance, low ones little dissolved substance.
